Reference: US20250082756A1 (Regeneron, published 2025)
Where a chain is given by its changes, count along the chain named.

T1: MUC16 ectodomain stably expressed on engineered RD tumor cells (high, medium or low levels) (human)
T1 chain: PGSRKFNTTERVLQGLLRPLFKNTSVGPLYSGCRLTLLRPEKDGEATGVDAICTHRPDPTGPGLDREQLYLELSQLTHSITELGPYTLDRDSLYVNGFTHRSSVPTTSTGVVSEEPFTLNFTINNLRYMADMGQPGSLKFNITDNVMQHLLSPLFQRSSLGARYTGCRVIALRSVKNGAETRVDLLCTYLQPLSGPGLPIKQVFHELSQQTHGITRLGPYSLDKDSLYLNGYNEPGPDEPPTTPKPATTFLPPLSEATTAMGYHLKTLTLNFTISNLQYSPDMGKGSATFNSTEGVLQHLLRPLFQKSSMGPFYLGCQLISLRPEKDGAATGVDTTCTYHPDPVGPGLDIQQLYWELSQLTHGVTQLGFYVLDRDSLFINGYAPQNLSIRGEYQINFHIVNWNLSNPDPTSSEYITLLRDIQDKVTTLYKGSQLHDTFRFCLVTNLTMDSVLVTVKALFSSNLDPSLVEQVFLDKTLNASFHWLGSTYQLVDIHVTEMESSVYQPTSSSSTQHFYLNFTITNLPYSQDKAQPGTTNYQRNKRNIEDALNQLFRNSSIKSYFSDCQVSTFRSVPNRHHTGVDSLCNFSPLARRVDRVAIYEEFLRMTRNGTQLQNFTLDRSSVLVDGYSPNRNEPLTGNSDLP

T2: MUC16-nub ectodomain antigen (human MUC16 membrane proximal domain P13810-P14451 having a myc-myc-his tag) (human)
T2 chain: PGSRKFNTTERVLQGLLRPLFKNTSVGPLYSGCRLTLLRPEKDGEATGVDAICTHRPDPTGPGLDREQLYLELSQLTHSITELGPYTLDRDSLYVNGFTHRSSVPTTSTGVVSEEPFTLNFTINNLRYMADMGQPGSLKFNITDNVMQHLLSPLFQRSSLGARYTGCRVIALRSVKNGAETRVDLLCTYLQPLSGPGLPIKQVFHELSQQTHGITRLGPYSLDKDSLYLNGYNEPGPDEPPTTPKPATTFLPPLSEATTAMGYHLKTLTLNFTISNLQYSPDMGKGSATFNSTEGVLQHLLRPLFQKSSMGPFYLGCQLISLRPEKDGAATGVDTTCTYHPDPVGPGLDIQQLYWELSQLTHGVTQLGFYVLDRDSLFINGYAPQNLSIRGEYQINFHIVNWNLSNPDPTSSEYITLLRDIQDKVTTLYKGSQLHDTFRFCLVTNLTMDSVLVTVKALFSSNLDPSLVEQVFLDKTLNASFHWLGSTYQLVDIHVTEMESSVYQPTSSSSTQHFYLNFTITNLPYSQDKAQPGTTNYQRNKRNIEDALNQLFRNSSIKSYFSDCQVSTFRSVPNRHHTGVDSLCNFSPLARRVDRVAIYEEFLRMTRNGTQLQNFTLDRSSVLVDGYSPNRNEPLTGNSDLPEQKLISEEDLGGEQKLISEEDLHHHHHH

B1: pBB4015 CAR (8808 L-H; BBz) (other)
chain: EIVLTQSPDTLSLSPGERATLSCRASQSLSSNYLAWYRQKPGQAPRLLIYGISSRATGIPDRFSGSGSGTDFTLTISRLEPEDFAVYYCQQYGSSPWTFGQGTKVEIKGGGGSGGGGSGGGGSQVQLVESGGGVVQPGRSLRLSCVASGFTFSNYGIHWVRQAPGKGLEWVAVISDDGSFKFYADSVKGRFTISRDNSKNTLYLQMNSLRVEDSAVYHCAKWQHNWNDGGFDYWGQGTLVTVSSTTTPAPRPPTPAPTIASQPLSLRPEACRPAAGGAVHTRGLDFACDIYIWAPLAGTCGVLLLSLVITLYCKRGRKKLLYIFKQPFMRPVQTTQEEDGCSCRFPEEEEGGCELRVKFSRSADAPAYQQGQNQLYNELNLGRREEYDVLDKRRGRDPEMGGKPRRKNPQEGLYNELQKDKMAEAYSEIGMKGERRRGKGHDGLYQGLSTATKDTYDALHMQALPPR
B2: Anti-MUC16 7135 (antibody, V domains shown)
VH: EVQLVESGGGLVQAGGSLRLSCAASGFTFSYHEMNWVRQAPGKGLEWVSYIGSRGTTKHYADPVKGRFTISRDNAKNSLYLQMNSLRAEDTAVYYCASEVGSILGYSMDVWGQGTTVTVSS
VL: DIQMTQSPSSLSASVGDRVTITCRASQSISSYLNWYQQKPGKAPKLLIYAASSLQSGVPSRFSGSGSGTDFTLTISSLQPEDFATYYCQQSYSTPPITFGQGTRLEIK
notes: also called BBz) and pBB4001 (7135 L-H
B3: Anti-MUC16 8799 (antibody, V domains shown)
VH: EVQLVESGGGLEQPGRSLRLSCTASGFAFGDHTMSWVRQAPGKGLEWVGFIRSRAYGGTTEYAASVKGRFTISRDDSKSIAYLQMDSLKTEDTAVYYCTSGGYDSSLHYYYYYHGMDVWGRGTTVTVSS
VL: EIVLTQSPGTLSLSPGERATLSCRASQSITSSYLAWYQQRPGQAPRLLIYGASSRATGIPDRFSGSGSGTDFTLTISRLEPEDFAVYYCQQYGSSPWTFGQGTKVEIK
notes: also called BBz) and pBB4011 (8799 L-H
B4: Anti-MUC16 8810 (antibody, V domains shown)
VH: EVQLVESGGALVQPGGSLRLSCAASGFTFSSYAMHWVRQAPGKGLEFVSTISYNGGTTYYADSVKGRFTVSRDNSKNTVFLRMGSLRTEDMAVYYCARAAAPWGQGTLVTVSS
VL: B3 VL with G9D, I29V, T30S, S31N, S32R, R40K, Q90H
notes: also called BBz) and pBB4017 (8810 L-H
B5: Anti-MUC16 8808 (antibody, V domains shown)
VH: QVQLVESGGGVVQPGRSLRLSCVASGFTFSNYGIHWVRQAPGKGLEWVAVISDDGSFKFYADSVKGRFTISRDNSKNTLYLQMNSLRVEDSAVYHCAKWQHNWNDGGFDYWGQGTLVTVSS
VL: B3 VL with G9D, I29L, T30S, S32N, Q38R, R40K, A52I
notes: also called BBz) and pBB4015 (8808 L-H
B6: Anti-MUC16 8804 (antibody, V domains shown)
VH: EVQLVESGGGLVQPGRSLRLSCTGSGLTFGDYGMSWVRQAPGKGLEWVGFIRSKGYGGTTEYAASVKGRFTISRDDSKSTAYLQMNSLKTEDTAVYYCTSGGYDSSVHYYYYYYAMDVWGQGTTVTVSS
VL: not shown
notes: also called BBz) and pBB4013 (8804 L-H
B7: Anti-MUC16 8767 (antibody, V domains shown)
VH: QVQLVESGGGLVKPGGSLRLSCAASGFTFSNYYMSWVRQAPGKGLEWISYISGRGSTIFYADSVKGRITISRDNAKNSLFLQMNSLRAEDTAVYFCVKDRGGYSPYWGQGTLVTVSS
VL: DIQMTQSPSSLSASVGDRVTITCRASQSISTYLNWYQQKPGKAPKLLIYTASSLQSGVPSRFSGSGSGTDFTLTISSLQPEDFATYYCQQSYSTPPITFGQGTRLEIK
notes: also called BBz) and pBB4007 (8767 L-H
B8: Anti-MUC16 7138 (antibody, V domains shown)
VH: QVQLVQSGAEVKKPGASVKVSCKASGYTFTSSDINWVRQATGQGLEWVGWMNPNYGYTGSARKFQDRVTMTRNTSLSTAYLELHSLRSEDTAVYYCARVTYCSSVTSCFRPFTYWGQGTLVTVSA
VL: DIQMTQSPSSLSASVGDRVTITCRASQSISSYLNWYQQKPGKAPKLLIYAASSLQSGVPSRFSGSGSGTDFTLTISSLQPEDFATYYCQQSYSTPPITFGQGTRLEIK
notes: also called BBz) and pBB4003 (7138 L-H
B9: Anti-MUC16 8794 (antibody, V domains shown)
VH: QVQLVESGGGLVKPGGSLRLSCAASGFTFRDYSMSWIRQAPGKGLEWVSYVTFFNSAIYYADSVKGRFTISRDNAKNSLYLQMNSLRAEDTAVYYCAREREPIVGGFDYWGQGTLVTVSS
VL: DIQMTQSPSSLSASVGDRVTITCRASQSINSYLNWYQQKPGKAPKLLIYAASSLQGGVPSRFSGGGSGTDFTLTITSLQPEDFATFYCQQSYSSPPITFGQGTRLEIK
notes: also called BBz) and pBB4009 (8794 L-H
B10: Anti-MUC16 8755 (antibody, V domains shown)
VH: EVQLVESGGGLVQPGRSLRLSCAASGFTFNDYAMHWVRQSPGKGLEWVSGIDWNGGSIDYADSVKGRFTISRDTAKNSLYLQMNSLKVEDTALYYCAKDIGHWNYIGGMDVWGQGTTVTVSS
VL: B9 VL with S31I, L46F, G56T, G65S, T76S, Q79E, F86Y, Q90H, S94T
notes: also called BBz) and pBB4005 (8755 L-H
B11: Anti-MUC16 8813 (antibody, V domains shown)
VH: QVQLVQSGAEVKKPGASVKVSCKAFGYTLTGYYIHWVRQAPGQGLEWMGWINPNNGGTNYAQKFQGRVTMTRDKSISTAYMELSRLRSDDTAVYYCARSLELLPDGMDVWGQGTTVTVSS
VL: not shown
notes: also called BBz) and pBB4019 (8813 L-H

Target: T1, MUC16 ectodomain stably expressed on …
Assay: cell-based or functional assay

Row | Binder | percent (%) of tumor cell killing, RD low antigen positive tumor cells, 2.5:1 E:T ratio, 72 hours, impedance analyzer [% cytotoxicity] | percent (%) of tumor cell killing, RD medium or high antigen positive tumor cells, all E:T ratios, 72 hours, impedance analyzer [% cytotoxicity]
1 | B1 | < 60 | > 70

Target: T2, MUC16-nub ectodomain antigen (human …)
Assay: cell-based or functional assay

Row | Binder | EC50 (read off the curve); IFNγ release of BB4015 CAR T cells against the coating concentration of MUC16 nub [µg/mL]
2 | B1 | ~0.05

Target: T2, MUC16-nub ectodomain antigen (human …)
Assay: Binder Kd of Table 3; method and antigen not described

Row | Binder | Kd [nM]
3 | B2 | 10.5
4 | B3 | 0.826
5 | B4 | 1.12
6 | B5 | 0.277
7 | B6 | 1.86
8 | B7 | 1.01
9 | B8 | 0.321
10 | B9 | 0.554
11 | B10 | 0.124
12 | B11 | 0.32
